The target in assay [1] is T1, RA peptide (Octet assay of PS621 variants).
T1 construct: X… with X = R
Kind of assay: Octet (BLI), 30 C. The source says:
(§1) Peptides of the sequence RXKLDEESILKQK (SEQ ID NO: 1076) were also used to evaluate the penultimate residue effect.
Background: Biolayer interferometry detects binding as a change in optical thickness at a sensor tip.

The target of assay [2] is T2, RL peptide (Octet assay of PS621 variants).
T2 construct: RXKLDEESILKQK with X = L
T2 peptide: RLKLDEESILKQK
The assay is described as follows: Octet (BLI), 30 C.
From the text: as §1

Assay [3] has as its target T3, RE peptide (Octet assay of PS621 variants).
T3 construct: RXKLDEESILKQK with X = E
T3 peptide: REKLDEESILKQK
The assay is described as follows: Octet (BLI), 30 C.
From the text: as §1

Assay [4] deals with T4, RQ peptide (Octet assay of PS621 variants).
T4 construct: RX… with X = Q
The assay is described as follows: Octet (BLI), 30 C.
From the text: as §1

The target in assay [5] is T5, RS peptide (Octet assay of PS621 variants).
T5 construct: RXKLDEESILKQK with X = S
T5 peptide: RSKLDEESILKQK
Kind of assay: Octet (BLI), 30 C.
From the text: as §1

Assay [6] addresses T6, RR peptide (Octet assay of PS621 variants).
T6 construct: RX… with X = R
Kind of assay: Octet (BLI), 30 C.
From the text: as §1

In assay [7] the target is T7, RF peptide (Octet assay of PS621 variants).
T7 construct: RX… with X = F
The assay is described as follows: Octet (BLI), 30 C.
From the text: as §1

Assay [8] has as its target T8, KA peptide (Octet assay of PS621 variants).
T8 construct: XAKLDEESILKQK with X = K
T8 peptide: KAKLDEESILKQK
The assay is described as follows: Octet (BLI), 30 C.

Assay [9] concerns the target T9, RA peptide (XAKLDEESILKQK-FITC, X = R).
T9 construct: also called peptide with N-terminal arginine
T9 peptide: RAKLDEESILKQK(FITC)
The assay is described as follows: fluorescence polarization titration, 20 C. The method, then: Binding affinity was measured by polarization using a labeled peptide. The polarization response and total intensity measurements were carried out at 20° C. on a microplate fluorometer with 480 nm excitation and 530 nm emission. […] Multiple analyses were performed at increasing recognizer concentration at a fixed concentration of a target peptide to obtain a titration curve. An equilibrium polarization response at each concentration was plotted and fit to calculate the KD.
Fluorescence polarization assays were performed with all candidates, and single point binding responses were measured at a fixed concentration of the binders (FIG. 13A). […] We carried out multiple polarization binding titration analysis at increasing concentration of binder protein, and the Kds were determined from the titration curves (FIG. 13B).
(In fluorescence polarisation assays a small probe gives low polarisation when free and higher when bound to something large.)

For assay [10], the target named is T10, HA peptide (Octet assay of PS621 variants).
T10 construct: XAKLDEESILKQK with X = H
T10 peptide: HAKLDEESILKQK
The assay is described as follows: Octet (BLI), 30 C.

Assay [11] has as its target VA Peptide (fluorescence polarization) (FITC on the C-terminal lysine). Kind of assay: fluorescence polarization, FITC peptide titrated with protein.
Assay [12] deals with T11, AA Peptide (fluorescence polarization), AAKLDEESILKQ{LYS(FITC)}.
T11 peptide: AAKLDEESILKQK(FITC)
The assay is described as above.

Assay [13] addresses T12, AA peptide (Octet assay of PS557 variants).
T12 construct: Peptide coated on the Octet sensor
The assay is described as follows: Octet (BLI), peptide on sensor, response after 200 s association. The source says:
(§2) In the high-throughput assay, Octet sensors are coated with the peptide of interest and dipped in buffer containing the purified protein. […] Studying the on and off-rate can also give insight into the mechanism of binding.

Assay [14] deals with T13, VA peptide (Octet assay of PS557 variants).
T13 construct: Peptide coated on the Octet sensor
Described as above.
From the text: as §2

For assay [15], the target named is T14, LA peptide (Octet assay of PS557 variants).
T14 construct: Peptide coated on the Octet sensor
The description is as above.
From the text: as §2

The target in assay [16] is T15, MA peptide (Octet assay of PS557 variants).
T15 construct: Peptide coated on the Octet sensor
The assay is described as above.
From the text: as §2

For assay [17], the target named is T16, IA peptide (Octet assay of PS557 variants).
T16 construct: Peptide coated on the Octet sensor
The assay is described as above.
From the text: as §2

Assay [18] addresses T17, FA peptide (Octet assay of PS557 variants).
T17 construct: Peptide coated on the Octet sensor
The description is as above.
From the text: as §2

Assay [19] addresses T18, LA Peptide (fluorescence polarization).
T18 peptide: LAKLDEESILKQK(FITC)
The assay is described as follows: fluorescence polarization, FITC peptide titrated with protein.

The target in assay [20] is T19, MA Peptide (fluorescence polarization).
T19 peptide: MAKLDEESILKQK(FITC)
Described as above.

Assay [21] concerns the target T15, MA peptide (Octet assay of PS557 …). The assay is described as follows: Octet (BLI), peptide on sensor, response after 200 s association. The source says: (§3) In the high-throughput assay, Octet sensors are coated with the peptide of interest and dipped in buffer containing the purified protein. An approximation of relative binding can be obtained by comparing the response after 200 seconds for each protein. Each protein has approximately the same molecular mass and is used at the same concentration, so ranking the proteins by response level in this assay gives an approximation of which proteins have improved binding. Studying the on and off-rate can also give insight into the mechanism of binding.
The source holds these as a separate data set.

In assay [22] the target is T16, IA peptide (Octet assay of PS557 …). The description is as above.
From the text: as §3
The source holds these as a separate data set.

For assay [23], the target named is T17, FA peptide (Octet assay of PS557 …). The assay is described as above.
From the text: as §3
This is another data set of the same source.

Assay [24] addresses T20, WA peptide (Octet assay of PS557 variants).
T20 construct: Peptide coated on the Octet sensor
Described as above.
From the text: as §3

Assay [25] concerns the target T21, YA peptide (Octet assay of PS557 variants).
T21 construct: Peptide coated on the Octet sensor
Described as above.
From the text: as §3

Where two headings read alike, the source gives them in different places. No end group written: not given here. *: point of attachment. FITC = O=C1OC2(c3ccc(O)cc3Oc3cc(O)ccc32)c2ccc(NC(=S)*)cc21

B1: PS1101 (designed binder)
chain: MHSKFSHAGRICGAKFKVREPIYRCKECSFDDTCVLCVNCFNPKDHTGHHVYTTICTEFNNGICDCGDKEAWNHTLFCKAEEG
notes: Variant of PS621
What is called Kd is a measure of binding affinity in units of concentration. As to B1, the Octet response in assay [1] was 6.5; in assay [2], 7.7; in [3], 1.9; in assay [4], 4.7; in [5], 4.3; in assay [6] it was 2.8. The figures for the Octet response in [7] and in assay [8] were 6 and 1.4, respectively. The Kd in [9] is 1550 nM.

B2: PS1120 (designed binder)
chain: MHSKFSHAGRICGAKFKVGEPIYRCKECSFDDTCVLCVNCFNPKDHTGHHVYTKICTEFNNGICDCGDKEAWNHTLFCKAEEG
notes: Variant of PS621
As for B2, the Octet response amounted to 9.9 in assay [1]; 11.7 in assay [2]; 8.8 in [3]; 9.5 in [4]; 8.3 in [5]; 5.9 in assay [6]. Further, the Octet response in assay [7] stood at 10.2; in assay [10], 1.7; in assay [8], 5.5.

B3: PS1102 (designed binder)
chain: MHSKFSHAGRICGAKFKVGEPIYRCKECQFDDTCVLCVNCFNPKDHTGHHVYTTICTEFNNGICDCGDKEAWNHTLFCKAEEG
notes: Variant of PS621
Turning to B3, the Octet response in [1] was 8.6; in assay [2], 10.4; in assay [3] it was 6.6; in assay [4] it was 9.3; in assay [5], 8.5; in assay [6], 7. In addition, the figures for the Octet response in assay [7], in assay [10] and in assay [8] were 9.3, 2.5 and 6.6, respectively. Further, the Kd in [9] was 638 nM.

B4: PS769 (designed binder)
chain: MPTAASATESAIEDTPAPARPEVDGRTKPKRQPRYHVVLWDDDDHTYQYVVVMLQSLFGHPPERGYRLAKEVDTQGRVIVLTTTREHAELKRDQIHAFGYDRLLARSKGSMKASIEAEE
notes: Variant of PS557; also called N41D
Turning to B4, the Kd turned out to be 276 nM in assay [11] and 8700 nM in assay [12].

B5: PS963 (designed binder)
chain: MPTAASATESAIEDTPAPARPEVDGRTKPKRQPRYHVVLWDDDDHTYQYVVVMLRSLFGHPPARGYRLAKEMDTQGRVIVLTTTREHAELKRDQIHAFGRDRLLARSKGSMKASIEAEE
notes: Variant of PS557
As to B5, the Octet response in [13] is 4.06 nm; in assay [14], 10.4 nm; in [15], 9.65 nm; in assay [16], 8.4 nm; in [17], 10.2 nm; in assay [18] it was 2.25 nm.

B6: PS824 (designed binder)
chain: MPTAASATESAFEDTPAPARPEVDGRTKPKRQPRYHVVLWDDDDHTYQYVVVMLRSLFGHPPERGYRLAKEMDTQGRVIVLTTTREHAELKRDQIHAFGYDRLLARSKGSMKASIEAEE
notes: Variant of PS557
B6: the Kd in assay [19] came to 10 nM; in assay [11] it was 205 nM; in assay [12], 6770 nM; in assay [20], 648 nM. Further, the Octet response in assay [21] turned out to be 9.5 nm; in assay [22], 13.5 nm; in [23] it was 0.673 nm; in assay [24], 0.165 nm; in assay [25], 1.31 nm.

B7: PS962 (designed binder)
chain: MPTAASATESAIEDTPAPARPEVDGRTKPKRQPRYHVVLWDDDDHTYQYVVVMLRSLFGHPYARGYRLAKEMDTQGRVIVLTTTREHAELKRDQIHAFGRDRLLARSKGSMKASIEAEE
notes: Variant of PS557
Take B7: the Octet response in assay [13] was 3.76 nm; in assay [14], 10.7 nm; in assay [15] it was 10.5 nm; in [16], 8.37 nm; in [17], 10.7 nm; in assay [18], 2.57 nm.

B8: PS816 (designed binder)
chain: MPTAASATESAIEDTPAPARPEVDGRTKPKRQPRYHVVLWDDDDHTYQYVVVMLQSLFGHPPERGYRLAKEMDTQGRVIVLTTTREHAELKRDQIHAFGYDRLLARSKGSMKASIEAEE
notes: Variant of PS557; also called N41D, V72M
With B8, the Kd was determined as 266 nM in assay [11], 7590 nM in assay [12] and 805 nM in assay [20].

B9: PS960 (designed binder)
chain: MPTAASATESAIEDTPAPARPEVDGRTKPKRQPRYHVVLWDDDDHTYQYVVVMLRSLFGIPPERGYRLAKEMDTQGRVIVLTTTREHAELKRDQIHAFGYDRLLARSKGSMKASIEAEE
notes: Variant of PS557
Consider B9, for which the Octet response in [13] came out at 1.68 nm; in assay [14] it was 9.29 nm; in assay [15] it was 10.5 nm; in [16] it was 6.86 nm; in [17], 9.98 nm; in assay [18] it was 0.0851 nm.

B10: PS961 (designed binder)
chain: MPTAASATESAIEDTPAPARPEVDGRTKPKRQPRYHVVLWDDDDHTYQYVVVMLRSLFGHPPSRGYRMAKEMDTQGRVIVLTTTREHAELKRDQIHAFGRDRLLARSKGSMKASIEAEE
notes: Variant of PS557; also called N41D, V72M, Q55R, E63S, L68M, Y100R
Consider B10, for which the Kd stood at 3300 nM in assay [12] and 143 nM in assay [20]. Besides, the Octet response in assay [13] stood at 4.87 nm; in assay [14] it was 11.3 nm; in [15] it was 11.8 nm; in assay [16], 9.26 nm; in assay [17], 11.5 nm; in assay [18] it was 2.05 nm.

B11: PS857 (designed binder)
chain: MPTAASATESAIEDTPAPARPEVDGRTKPKRQPRYHVVLWDDDDHTYQYVVVMLQSLFGHPPERGYRMAKEMDTQGRVIVLTTTREHAELKRDQIHAFGYDRLLARSKGSMKASIEAEE
notes: Variant of PS557; also called N41D, V72M, L68M
Regarding B11, the Kd came out at 7 nM in assay [19], 487 nM in assay [11], 15000 nM in assay [12] and 746 nM in [20].

B12: PS852 (designed binder)
chain: MPTAASATESAIEDTPAPARPEVDGRTKPKHQPRYHVVLWDDDDHTYQYVVVMLRSLFGHPPERGYRLAKEMDTQGRVIVLTTTREHAELKRDQIHAFGYDRLLARSKGSMKASIEAEE
notes: Variant of PS557
For the molecule B12, the Kd in [19] turned out to be 19 nM; in assay [11], 142 nM; in assay [12], 5140 nM; in assay [20], 1140 nM. The Octet response is 5.48 nm in [21]; 9.38 nm in [22]; 0.102 nm in [23]; 0.0292 nm in assay [24]; 0.177 nm in assay [25].

The record behind these values is patent US20240272170A1 (QUANTUM SI, published 2024).
